The results in this text go back to patent publication US20020142976A1, “Materials and methods for modulating differentiation” (ICOS Corporation, priority 1998, published 2002).

The assay deals with T1, ATR (Mus musculus, UniProt Q9JKK8).
T1 construct: from tissue; host or cells: mouse testes extract
The assay is described as follows: MyoD phosphorylation (ATR kinase) assay with MyoD-derived peptide substrates. The class given is biochemical. As to conditions: in vitro kinase assay, 32P-γATP, room temperature 40 minutes. The method, then:
ATR was captured on a 96 well plate previously coated first with goat anti-mouse antibodies (Pierce) and secondly with anti-ATR antibody 224C. A hybridoma which secretes antibody 224C was deposited with the American Type Culture Collection (ATCC), 12301 Parklawn Drive, Rockville, Md. 20852 on Nov. 7, 1996 and assigned ATCC Accession Nos. HB 12233. The 224C antibody was added to the plate at a concentration of […] in BT blocking buffer and incubated for at least 30 hours at 4° C. The wells were washed with TBS containing 0.05% Tween® 20 and mouse testes extract (prepared as described in Example 6 of WO 97/18323 published May 22, 1997 from International Application No. PCT/US96/19337, incorporated herein by reference) was added. […]
The supernatant, containing the ^32P-labeled peptide was transferred to P81 phosphocellulose paper, the paper was washed three times with 100 mM phosphoric acid (to remove unincorporated label) and once with ethanol, and Cerenkov radiation (in counts per minute, cpm) was counted in a scintillation counter.
MyoD is a 319 amino acid transcription factor that is often phosphorylated in cells. As described in Example 6 (of WO 97/18323), it has been determined that ATR phosphorylates MyoD in in vitro kinase assays and the target serine residue in myoD has been identified using a MyoD deletion peptide, B-HLH containing amino acids 102 through 165. […]

T1 sequence (Q9JKK8 whole entry): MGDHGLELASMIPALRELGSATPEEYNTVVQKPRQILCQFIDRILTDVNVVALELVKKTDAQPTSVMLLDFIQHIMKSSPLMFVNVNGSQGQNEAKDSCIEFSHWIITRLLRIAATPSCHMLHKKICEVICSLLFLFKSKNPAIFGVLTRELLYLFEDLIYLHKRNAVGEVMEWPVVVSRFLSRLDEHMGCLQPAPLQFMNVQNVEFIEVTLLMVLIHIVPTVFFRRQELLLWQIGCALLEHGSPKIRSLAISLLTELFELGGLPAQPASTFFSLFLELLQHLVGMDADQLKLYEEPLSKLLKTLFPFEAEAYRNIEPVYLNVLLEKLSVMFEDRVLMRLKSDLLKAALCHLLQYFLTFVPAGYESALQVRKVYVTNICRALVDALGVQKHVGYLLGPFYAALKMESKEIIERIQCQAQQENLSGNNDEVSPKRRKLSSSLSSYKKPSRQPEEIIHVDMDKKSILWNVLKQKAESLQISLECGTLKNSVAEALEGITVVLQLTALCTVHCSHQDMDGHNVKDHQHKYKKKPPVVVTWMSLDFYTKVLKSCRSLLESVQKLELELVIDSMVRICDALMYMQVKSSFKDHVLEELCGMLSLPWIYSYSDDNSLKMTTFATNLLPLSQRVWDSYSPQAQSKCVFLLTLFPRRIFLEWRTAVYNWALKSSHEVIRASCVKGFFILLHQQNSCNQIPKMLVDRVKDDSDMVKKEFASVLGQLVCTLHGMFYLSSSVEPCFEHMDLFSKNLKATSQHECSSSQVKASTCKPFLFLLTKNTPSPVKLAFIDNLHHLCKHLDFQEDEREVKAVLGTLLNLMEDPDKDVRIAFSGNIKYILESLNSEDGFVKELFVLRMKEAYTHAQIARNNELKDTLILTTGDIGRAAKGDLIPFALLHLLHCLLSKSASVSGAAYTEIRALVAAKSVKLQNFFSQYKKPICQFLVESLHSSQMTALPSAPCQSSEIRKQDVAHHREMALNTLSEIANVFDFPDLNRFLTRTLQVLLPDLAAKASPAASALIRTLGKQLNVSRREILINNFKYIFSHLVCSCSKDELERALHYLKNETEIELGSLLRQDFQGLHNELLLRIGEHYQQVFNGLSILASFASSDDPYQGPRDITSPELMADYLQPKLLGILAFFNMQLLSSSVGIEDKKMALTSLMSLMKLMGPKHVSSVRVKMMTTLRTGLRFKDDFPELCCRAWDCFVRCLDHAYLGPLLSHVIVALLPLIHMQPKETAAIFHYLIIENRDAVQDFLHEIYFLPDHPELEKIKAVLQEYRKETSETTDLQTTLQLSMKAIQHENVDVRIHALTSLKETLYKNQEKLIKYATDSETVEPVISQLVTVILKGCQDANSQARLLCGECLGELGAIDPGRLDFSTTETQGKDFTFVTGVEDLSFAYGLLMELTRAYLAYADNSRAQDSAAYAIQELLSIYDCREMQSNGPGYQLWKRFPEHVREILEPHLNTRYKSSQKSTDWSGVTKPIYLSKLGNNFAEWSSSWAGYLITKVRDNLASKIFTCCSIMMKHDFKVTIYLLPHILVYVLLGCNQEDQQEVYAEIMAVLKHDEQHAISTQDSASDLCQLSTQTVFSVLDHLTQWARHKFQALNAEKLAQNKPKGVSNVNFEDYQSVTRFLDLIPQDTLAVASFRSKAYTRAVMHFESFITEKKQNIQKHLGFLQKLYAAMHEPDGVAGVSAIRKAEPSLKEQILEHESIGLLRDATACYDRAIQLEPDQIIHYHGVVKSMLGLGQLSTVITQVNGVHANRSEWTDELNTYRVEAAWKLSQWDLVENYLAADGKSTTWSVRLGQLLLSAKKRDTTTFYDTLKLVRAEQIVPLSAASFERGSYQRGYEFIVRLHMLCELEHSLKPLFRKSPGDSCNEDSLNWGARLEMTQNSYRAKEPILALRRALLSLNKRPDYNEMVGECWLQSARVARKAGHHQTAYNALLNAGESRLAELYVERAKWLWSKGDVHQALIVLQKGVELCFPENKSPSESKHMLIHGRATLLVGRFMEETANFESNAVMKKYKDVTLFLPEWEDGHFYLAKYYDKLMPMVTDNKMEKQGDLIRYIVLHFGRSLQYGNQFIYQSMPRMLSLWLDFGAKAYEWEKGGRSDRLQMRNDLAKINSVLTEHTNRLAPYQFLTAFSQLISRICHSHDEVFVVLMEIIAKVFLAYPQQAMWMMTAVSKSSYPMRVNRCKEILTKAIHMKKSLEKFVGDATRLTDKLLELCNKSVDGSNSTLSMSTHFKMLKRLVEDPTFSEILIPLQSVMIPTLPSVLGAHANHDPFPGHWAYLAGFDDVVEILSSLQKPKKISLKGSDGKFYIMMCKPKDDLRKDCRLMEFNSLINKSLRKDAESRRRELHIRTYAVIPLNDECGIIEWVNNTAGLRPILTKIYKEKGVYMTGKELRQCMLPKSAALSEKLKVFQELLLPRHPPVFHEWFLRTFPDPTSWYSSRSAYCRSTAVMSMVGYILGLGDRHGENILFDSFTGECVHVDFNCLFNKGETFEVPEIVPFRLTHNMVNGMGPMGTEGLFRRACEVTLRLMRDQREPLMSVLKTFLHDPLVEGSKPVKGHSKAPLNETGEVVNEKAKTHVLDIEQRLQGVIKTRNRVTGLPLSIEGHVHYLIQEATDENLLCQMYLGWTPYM
T1 sequence (Q8BMG1 whole entry partner): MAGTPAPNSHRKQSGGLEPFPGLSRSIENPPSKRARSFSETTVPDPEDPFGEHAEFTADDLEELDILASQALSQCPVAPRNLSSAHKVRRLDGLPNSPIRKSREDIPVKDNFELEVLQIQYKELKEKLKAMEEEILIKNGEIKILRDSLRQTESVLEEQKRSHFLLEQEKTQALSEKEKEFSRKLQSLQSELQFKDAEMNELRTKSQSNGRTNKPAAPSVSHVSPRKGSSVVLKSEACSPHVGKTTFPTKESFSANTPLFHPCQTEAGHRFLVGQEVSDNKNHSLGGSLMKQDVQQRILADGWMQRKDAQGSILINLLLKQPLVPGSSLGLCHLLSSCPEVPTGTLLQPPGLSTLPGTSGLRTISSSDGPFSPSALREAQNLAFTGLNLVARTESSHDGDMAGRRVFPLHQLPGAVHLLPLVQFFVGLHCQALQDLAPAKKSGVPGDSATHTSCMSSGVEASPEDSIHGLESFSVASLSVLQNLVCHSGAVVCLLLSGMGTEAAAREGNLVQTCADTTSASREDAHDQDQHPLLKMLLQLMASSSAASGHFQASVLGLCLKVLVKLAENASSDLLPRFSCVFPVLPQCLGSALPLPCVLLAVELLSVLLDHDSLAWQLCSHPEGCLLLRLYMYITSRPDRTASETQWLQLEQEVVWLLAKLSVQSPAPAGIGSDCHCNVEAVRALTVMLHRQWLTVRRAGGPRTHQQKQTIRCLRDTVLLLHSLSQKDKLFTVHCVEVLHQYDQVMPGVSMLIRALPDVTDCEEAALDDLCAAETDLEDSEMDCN

Turning to “NH2-Leu-Lys-Arg-Cys-Thr-Ser-Ser-Asn-Pro-Asn-Gln-Arg-Leu-Pro-Lys-COOH (H-LKRCTSSNPNQRLPK-OH) [IDH22]”, the “phosphorylation of peptide by ATR” value is “phosphorylated”.
